From patent publication US20200317768A1 (published 2020)

T1: human FcγRIIaH extracellular domain, C-terminal His-tag (human, UniProt P12318 34-217)
T1 construct: also called human FcγRIIa (type H); FcgRIIaH
T1 sequence: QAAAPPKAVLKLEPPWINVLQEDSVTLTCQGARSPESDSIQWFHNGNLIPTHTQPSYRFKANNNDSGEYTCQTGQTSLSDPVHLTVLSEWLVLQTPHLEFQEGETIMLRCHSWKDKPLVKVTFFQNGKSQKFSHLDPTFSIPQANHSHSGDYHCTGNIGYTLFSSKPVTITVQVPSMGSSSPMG

T2: human FcγRIIaR extracellular domain, C-terminal His-tag (human, UniProt P12318 34-217)
T2 construct: also called human FcγRIIa (type R); FcgRIIaR
T2 chain: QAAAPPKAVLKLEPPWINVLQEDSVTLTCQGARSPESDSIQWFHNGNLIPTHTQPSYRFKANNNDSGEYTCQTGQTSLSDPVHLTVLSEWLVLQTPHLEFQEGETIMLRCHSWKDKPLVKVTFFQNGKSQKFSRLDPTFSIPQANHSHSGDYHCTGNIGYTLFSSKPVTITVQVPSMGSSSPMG

T3: human FcγRIIb extracellular domain, C-terminal His-tag (human, UniProt P31994 43-217)
T3 construct: also called FcgRIIb (human)
T3 sequence: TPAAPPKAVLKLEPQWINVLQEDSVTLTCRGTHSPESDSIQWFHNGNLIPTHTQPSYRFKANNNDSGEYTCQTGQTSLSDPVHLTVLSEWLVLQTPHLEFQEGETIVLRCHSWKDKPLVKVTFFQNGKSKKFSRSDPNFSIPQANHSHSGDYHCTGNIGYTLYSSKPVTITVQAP


Tests used:
Assay in all cases: SPR 25C; FcgR bound per captured antibody, relative to parent B3
[1] = molecular target: T1, human FcγRIIaH extracellular domain, …
[2] = molecular target: T2, human FcγRIIaR extracellular domain, …
[3] = molecular target: T3, human FcγRIIb extracellular domain, …

| Binding to human FcgRs (parent B3 = 100) [1] | Binding to human FcgRs (parent B3 = 100) [2] | Binding to human FcgRs (parent B3 = 100) [3] | Binder |
| --- | --- | --- | --- |
| 128 parent B3 = 100 | 148 parent B3 = 100 | 156 parent B3 = 100 | GpH7-B3 variant Q295L/GpL16-k0 (antibody, human IgG1, kappa) heavy: not shown light: DIVMTQSPLSLPVTPGEPASISCQASESLVHSNRNTYLHWYLQKPGQSPQLLIYKVSNRFSGVPDRFSGSGSGTDFTLKISRVEAEDVGVYYCSQNTHVPPTFGQGTKVEIERTVAAPSVFIFPPSDEQLKSGTASVVCLLNNFYPREAKVQWKVDNALQSGNSQESVTEQDSKDSTYSLSSTLTLSKADYEKHKVYACEVTHQGLSSPVTKSFNRGEC |
| 79 parent B3 = 100 | 71 parent B3 = 100 | 107 parent B3 = 100 | GpH7-B3 variant S239V/GpL16-k0 (antibody, human IgG1, kappa) heavy: not shown light: DIVMTQSPLSLPVTPGEPASISCQASESLVHSNRNTYLHWYLQKPGQSPQLLIYKVSNRFSGVPDRFSGSGSGTDFTLKISRVEAEDVGVYYCSQNTHVPPTFGQGTKVEIERTVAAPSVFIFPPSDEQLKSGTASVVCLLNNFYPREAKVQWKVDNALQSGNSQESVTEQDSKDSTYSLSSTLTLSKADYEKHKVYACEVTHQGLSSPVTKSFNRGEC |
| 63 parent B3 = 100 | 3 parent B3 = 100 | 112 parent B3 = 100 | GpH7-B3 variant S267L/GpL16-k0 (antibody, human IgG1, kappa) heavy: not shown light: DIVMTQSPLSLPVTPGEPASISCQASESLVHSNRNTYLHWYLQKPGQSPQLLIYKVSNRFSGVPDRFSGSGSGTDFTLKISRVEAEDVGVYYCSQNTHVPPTFGQGTKVEIERTVAAPSVFIFPPSDEQLKSGTASVVCLLNNFYPREAKVQWKVDNALQSGNSQESVTEQDSKDSTYSLSSTLTLSKADYEKHKVYACEVTHQGLSSPVTKSFNRGEC |
| 82 parent B3 = 100 | 75 parent B3 = 100 | 108 parent B3 = 100 | GpH7-B3 variant S239I/GpL16-k0 (antibody, human IgG1, kappa) heavy: not shown light: DIVMTQSPLSLPVTPGEPASISCQASESLVHSNRNTYLHWYLQKPGQSPQLLIYKVSNRFSGVPDRFSGSGSGTDFTLKISRVEAEDVGVYYCSQNTHVPPTFGQGTKVEIERTVAAPSVFIFPPSDEQLKSGTASVVCLLNNFYPREAKVQWKVDNALQSGNSQESVTEQDSKDSTYSLSSTLTLSKADYEKHKVYACEVTHQGLSSPVTKSFNRGEC |
| 99 parent B3 = 100 | 71 parent B3 = 100 | 114 parent B3 = 100 | GpH7-B3 variant S298L/GpL16-k0 (antibody, human IgG1, kappa) heavy: not shown light: DIVMTQSPLSLPVTPGEPASISCQASESLVHSNRNTYLHWYLQKPGQSPQLLIYKVSNRFSGVPDRFSGSGSGTDFTLKISRVEAEDVGVYYCSQNTHVPPTFGQGTKVEIERTVAAPSVFIFPPSDEQLKSGTASVVCLLNNFYPREAKVQWKVDNALQSGNSQESVTEQDSKDSTYSLSSTLTLSKADYEKHKVYACEVTHQGLSSPVTKSFNRGEC |
| 27 parent B3 = 100 | 3 parent B3 = 100 | 42 parent B3 = 100 | GpH7-B3 variant S267H/GpL16-k0 (antibody, human IgG1, kappa) heavy: not shown light: DIVMTQSPLSLPVTPGEPASISCQASESLVHSNRNTYLHWYLQKPGQSPQLLIYKVSNRFSGVPDRFSGSGSGTDFTLKISRVEAEDVGVYYCSQNTHVPPTFGQGTKVEIERTVAAPSVFIFPPSDEQLKSGTASVVCLLNNFYPREAKVQWKVDNALQSGNSQESVTEQDSKDSTYSLSSTLTLSKADYEKHKVYACEVTHQGLSSPVTKSFNRGEC |
| 99 parent B3 = 100 | 80 parent B3 = 100 | 124 parent B3 = 100 | GpH7-B3 variant S239N/GpL16-k0 (antibody, human IgG1, kappa) heavy: not shown light: DIVMTQSPLSLPVTPGEPASISCQASESLVHSNRNTYLHWYLQKPGQSPQLLIYKVSNRFSGVPDRFSGSGSGTDFTLKISRVEAEDVGVYYCSQNTHVPPTFGQGTKVEIERTVAAPSVFIFPPSDEQLKSGTASVVCLLNNFYPREAKVQWKVDNALQSGNSQESVTEQDSKDSTYSLSSTLTLSKADYEKHKVYACEVTHQGLSSPVTKSFNRGEC |
| 176 parent B3 = 100 | 125 parent B3 = 100 | 283 parent B3 = 100 | GpH7-B3 variant S267A/GpL16-k0 (antibody, human IgG1, kappa) heavy: not shown light: DIVMTQSPLSLPVTPGEPASISCQASESLVHSNRNTYLHWYLQKPGQSPQLLIYKVSNRFSGVPDRFSGSGSGTDFTLKISRVEAEDVGVYYCSQNTHVPPTFGQGTKVEIERTVAAPSVFIFPPSDEQLKSGTASVVCLLNNFYPREAKVQWKVDNALQSGNSQESVTEQDSKDSTYSLSSTLTLSKADYEKHKVYACEVTHQGLSSPVTKSFNRGEC |
